Assays:
IL-37 [1] = molecular target: T1, IL-37 (human, UniProt Q9NZH6 1-218, limits assumed); experiment: CDI HuProt native protein microarray
T1 sequence (looked up): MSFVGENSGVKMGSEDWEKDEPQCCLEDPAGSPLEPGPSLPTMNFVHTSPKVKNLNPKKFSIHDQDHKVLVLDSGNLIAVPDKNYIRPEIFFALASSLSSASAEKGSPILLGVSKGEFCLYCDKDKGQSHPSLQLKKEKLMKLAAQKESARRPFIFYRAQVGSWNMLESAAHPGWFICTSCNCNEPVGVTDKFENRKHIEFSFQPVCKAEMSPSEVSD
Method: (§1) To confirm specificity to IL-38, several lead candidate antibodies (CD1-M3, CD1-M8, NZB-M8) were analyzed in a High-Spec Cross-reactivity Assay using native HuProt arrays (CDI Laboratories). […] of antibody was incubated overnight in a cold room, washed, and probed with anti-human secondary antibodies. Fluorescence intensity (F635) as an indicator of binding was measured for each spot. CDI software quantified the specificity of the antibody to each spot based on a Z-score. Z-score is defined as [F635−(Average F635 on array)]/(Standard deviation of F635 on array). S-score is defined as the difference between the Z-score of a given protein and the Z-score of the next highest protein.

IL-36Ra [2] = molecular target: T2, IL-36Ra (human, UniProt Q9UBH0 1-155, limits assumed); experiment: CDI HuProt native protein microarray
T2 sequence (looked up): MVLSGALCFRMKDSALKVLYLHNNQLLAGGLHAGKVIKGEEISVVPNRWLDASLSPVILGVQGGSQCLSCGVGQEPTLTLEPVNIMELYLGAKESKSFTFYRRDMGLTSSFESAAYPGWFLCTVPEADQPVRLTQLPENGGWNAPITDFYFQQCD
Method: as §1

IL-1Ra [3] = molecular target: T3, IL-1Ra (human, UniProt P18510 26-177, limits assumed); experiment: CDI HuProt native protein microarray
T3 sequence (P18510 26-177 limits assumed): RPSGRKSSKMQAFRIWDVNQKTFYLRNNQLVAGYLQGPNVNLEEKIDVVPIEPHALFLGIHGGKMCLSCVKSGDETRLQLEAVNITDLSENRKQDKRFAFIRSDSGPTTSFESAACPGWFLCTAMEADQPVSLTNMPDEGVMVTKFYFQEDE
Method: as §1

IL-36b [4] = molecular target: T4, IL-36b (human, UniProt Q9NZH7 1-164, limits assumed); experiment: CDI HuProt native protein microarray
T4 sequence (looked up): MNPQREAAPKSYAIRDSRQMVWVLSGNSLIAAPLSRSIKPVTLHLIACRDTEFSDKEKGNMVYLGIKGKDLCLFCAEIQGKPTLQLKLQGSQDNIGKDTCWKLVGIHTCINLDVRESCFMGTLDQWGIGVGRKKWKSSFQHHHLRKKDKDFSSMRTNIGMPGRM
Method: as §1

IL-36a [5] = molecular target: T5, IL-36a (human, UniProt Q9UHA7 1-158, limits assumed); experiment: CDI HuProt native protein microarray
T5 sequence (looked up): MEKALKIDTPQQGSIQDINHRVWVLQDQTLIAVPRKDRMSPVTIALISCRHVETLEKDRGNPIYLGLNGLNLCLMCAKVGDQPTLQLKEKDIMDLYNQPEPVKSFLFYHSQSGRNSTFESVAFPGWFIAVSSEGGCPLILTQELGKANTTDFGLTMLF
Method: as §1

IL-36g [6] = molecular target: T6, IL-36g (human, UniProt Q9NZH8 1-169, limits assumed); experiment: CDI HuProt native protein microarray
T6 sequence (looked up): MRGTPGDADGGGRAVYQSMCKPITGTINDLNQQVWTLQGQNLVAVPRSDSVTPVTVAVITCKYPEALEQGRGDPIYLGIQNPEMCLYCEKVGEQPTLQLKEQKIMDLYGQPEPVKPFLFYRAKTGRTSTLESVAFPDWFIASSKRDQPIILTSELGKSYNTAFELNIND
Method: as §1

IL-18 [7] = molecular target: T7, IL-18 (human, UniProt Q14116 1-193, limits assumed); experiment: CDI HuProt native protein microarray
T7 sequence (looked up): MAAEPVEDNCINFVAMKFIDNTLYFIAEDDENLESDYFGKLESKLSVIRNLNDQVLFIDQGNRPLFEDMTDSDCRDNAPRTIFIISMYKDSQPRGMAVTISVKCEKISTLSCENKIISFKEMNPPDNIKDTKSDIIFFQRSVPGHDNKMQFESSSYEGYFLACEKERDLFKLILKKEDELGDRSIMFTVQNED
Method: as §1

IL-1β [8] = molecular target: T8, IL-1β (human, UniProt P01584 1-269, limits assumed); experiment: CDI HuProt native protein microarray
Method: as §1

IL-33 [9] = molecular target: T9, IL-33 (human, UniProt O95760 1-270, limits assumed); experiment: CDI HuProt native protein microarray
T9 sequence (looked up): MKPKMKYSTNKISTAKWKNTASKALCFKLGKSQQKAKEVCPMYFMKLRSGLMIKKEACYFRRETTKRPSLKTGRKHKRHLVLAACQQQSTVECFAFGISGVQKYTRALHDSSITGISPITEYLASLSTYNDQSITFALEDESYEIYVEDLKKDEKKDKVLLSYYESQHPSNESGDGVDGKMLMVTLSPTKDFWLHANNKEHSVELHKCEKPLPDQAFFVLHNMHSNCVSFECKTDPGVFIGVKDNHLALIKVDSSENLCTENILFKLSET
Method: as §1

IL-1α [10] = molecular target: T10, IL-1α (human, UniProt P01583 1-271, limits assumed); experiment: CDI HuProt native protein microarray
T10 sequence (looked up): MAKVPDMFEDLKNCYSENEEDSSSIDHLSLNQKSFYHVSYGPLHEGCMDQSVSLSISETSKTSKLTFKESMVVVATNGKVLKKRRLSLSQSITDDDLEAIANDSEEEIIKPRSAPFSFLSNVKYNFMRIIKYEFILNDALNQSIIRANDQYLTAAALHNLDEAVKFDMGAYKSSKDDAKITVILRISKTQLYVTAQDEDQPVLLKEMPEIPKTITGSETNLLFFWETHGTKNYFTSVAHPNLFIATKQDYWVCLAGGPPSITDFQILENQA
Method: as §1

IL-37 [11] = molecular target: T1, IL-37; experiment: CDI HuProt native protein microarray, IL-1 family members
Method: as §1

IL-36Ra [12] = molecular target: T2, IL-36Ra; experiment: as above
Method: as §1

IL-1Ra [13] = molecular target: T3, IL-1Ra; experiment: as above
Method: as §1

IL-36b [14] = molecular target: T4, IL-36b; experiment: as above
Method: as §1

IL-36a [15] = molecular target: T5, IL-36a; experiment: as above
Method: as §1

IL-36g [16] = molecular target: T6, IL-36g; experiment: as above
Method: as §1

[17] = molecular target: T11, human interleukin-38 (IL-38) (human, UniProt Q8WWZ1 1-152); experiment: as above
T11 construct: The Adipogen protein is called full length; also called IL1F10/IL38; IL1F10
T11 sequence (looked up): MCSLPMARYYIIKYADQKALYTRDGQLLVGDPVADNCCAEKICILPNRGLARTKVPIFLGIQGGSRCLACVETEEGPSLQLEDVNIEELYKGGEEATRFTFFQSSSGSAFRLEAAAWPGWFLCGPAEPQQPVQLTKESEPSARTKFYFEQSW
Method: as §1

IL-18 [18] = molecular target: T7, IL-18; experiment: as above
Method: as §1

IL-1β [19] = molecular target: T8, IL-1β; experiment: as above
Method: as §1

IL-33 [20] = molecular target: T9, IL-33; experiment: as above
Method: as §1

IL-1α [21] = molecular target: T10, IL-1α; experiment: as above
Method: as §1

[22] = molecular target: T11, human interleukin-38 (IL-38); experiment: SPR, IMM20130 captured on anti-human Fc CM5 chip, IL-38 as analyte, 25 C, 1:1 model
Method: Binding of IMM20130 to IL-38 (NovusBio, catalog number NBP2-22645) was quantified by surface plasmon resonance (SPR). Briefly, IMM20130 was diluted in SPR running buffer (10 mM HEPES, pH7.4, 150 mM NaCl, 0.0005% Tween-20, 0.2% bovine serum albumin) to final concentrations of 150 nM and 25 nM and captured at four different surface densities on an anti-human Fc coated CM5 sensor chip. Surface densities ranged from 600 to 3200 RU. IL-38 (NovusBio, catalog number NBP2-22645) was diluted in SPR running buffer to a concentration of 600 nM and a 3-fold dilution series was run across the four different IMM20130 density surfaces. Data were collected at 25° C. Data from all four surfaces were fitted to a 1:1 interaction model yielding the rate constants depicted in Table 2.

B1: CD1-M8 (antibody, V domains shown)
VH: EVQLQQSGPELVKPGASVKMSCKASGYTFTDYYIHWVKQSHGKGLEWIGYIFPNNGGNGYSQKFKGKATMTVDKSSSTAYMELRSLTSEDSAVYYCARGGYDAGFVYWGQGTLVTVSA
VL: DIVMSQSPSSLAVSAGEKVTMSCKSSQSLFNSGARKNFLAWYQQKPGQSPKLLIYWASTRESGVPDRFTGSGSGTDFTLTISSVQAEDLAVYYCKQSYYLITFGAGTKLELK
notes: Mouse monoclonal from a CD-1 mouse hybridoma
- binding result (IL-37 [1]): no binding
- binding result (IL-36Ra [2]): no binding
- binding result (IL-1Ra [3]): no binding
- binding result (IL-36b [4]): no binding
- binding result (IL-36a [5]): no binding
- binding result (IL-36g [6]): no binding
- binding result (IL-18 [7]): no binding
- binding result (IL-1β [8]): no binding
- binding result (IL-33 [9]): no binding
- binding result (IL-1α [10]): no binding
- Z-score (IL-37 [11]): -0.016
- Z-score (IL-36Ra [12]): -0.019
- Z-score (IL-1Ra [13]): 0.003
- Z-score (IL-36b [14]): -0.01
- Z-score (IL-36a [15]): 0.012
- Z-score (IL-36g [16]): -0.008
- Z-score [17]: 142
- Z-score (IL-18 [18]): -0.016
- Z-score (IL-1β [19]): -0.017
- Z-score (IL-33 [20]): -0.014
- Z-score (IL-1α [21]): -0.014

B2: NZB-M8 (antibody, V domains shown)
VH: EVQLQQSGPELVKPGASVKISCKASGYSFTGYYMHWVKQSPEKSLEWIGVINPNTGGITYNQKFKAKATLNVDKSSSTAYMQLKSLTSEDSAVYYCARSMGVWGQGTLVTVSA
VL: DIVMTQAAPSVSVTPGESVSISCRSSKSLLHSNGNTYLYWFLQRPGQSPQLLIYRMSNLASGVPDRFSGSGSGTAFTLRISRVEAEDVGVYYCMQYLEYPFTFGSGTKLEIK
notes: Mouse monoclonal from an NZB/w mouse hybridoma
- binding result (IL-37 [1]): no binding
- binding result (IL-36Ra [2]): no binding
- binding result (IL-1Ra [3]): no binding
- binding result (IL-36b [4]): no binding
- binding result (IL-36a [5]): no binding
- binding result (IL-36g [6]): no binding
- binding result (IL-18 [7]): no binding
- binding result (IL-1β [8]): no binding
- binding result (IL-33 [9]): no binding
- binding result (IL-1α [10]): no binding
- Z-score (IL-37 [11]): -0.113
- Z-score (IL-36Ra [12]): -0.034
- Z-score (IL-1Ra [13]): -0.166
- Z-score (IL-36b [14]): -0.087
- Z-score (IL-36a [15]): 0.033
- Z-score (IL-36g [16]): -0.143
- Z-score [17]: 34
- Z-score (IL-18 [18]): -0.132
- Z-score (IL-1β [19]): -0.143
- Z-score (IL-33 [20]): -0.17
- Z-score (IL-1α [21]): -0.147

B3: IMM20130 (antibody, human IgG1, kappa, V domains shown)
VH: QVQLVQSGAEVKKPGASVKVSCKASGYSFINYGITWVRQVPGQGLEWMGWISAYNVKTKYAPKFQGRVNMNTDTSTRTAYMELRSLRSDDTAVYYCARDRDYDFWSGSAFDIWGQGTMVTVSS
VL: EIVLTQSPGTLSLSPGERVTLSCRASQSISTNYLAWYQQKPGQAPSLLIYGASSRATGIPDRFSGSGSGTDFTLTISRLEPEDFAVYYCQQYGSSPPRTFGQGTKLEIKR
notes: also called PR087-29B5 (parent hybridoma antibody)
- Kd [22]: 13.6 nM
- kon [22]: 4980 M⁻¹ s⁻¹

From US20240174741A1 (IMMUNOME, published 2024)
